Molecular target: WT myostimulin (human C1orf54, residues 17-131) (human) (UniProt Q8WWF1)
Experiment: RP-HPLC-MS

stoichiometry N: 2
Substance: WT myostimulin (human C1orf54, residues 17-131) (from UniProt Q8WWF1 17-131) (natural protein)
